Assay results taken from publication PMC2064313 (The Journal of Cell Biology, 2006).
Changes are numbered by the printed parent chain. Names and notes keep the numbering of the source.

How the values were obtained:
[1] = target: T1, MBP-tagged FRLα C terminus (residues 612–1,094) (UniProt Q9JL26-1 612-1094); assay: pull-down
T1 sequence: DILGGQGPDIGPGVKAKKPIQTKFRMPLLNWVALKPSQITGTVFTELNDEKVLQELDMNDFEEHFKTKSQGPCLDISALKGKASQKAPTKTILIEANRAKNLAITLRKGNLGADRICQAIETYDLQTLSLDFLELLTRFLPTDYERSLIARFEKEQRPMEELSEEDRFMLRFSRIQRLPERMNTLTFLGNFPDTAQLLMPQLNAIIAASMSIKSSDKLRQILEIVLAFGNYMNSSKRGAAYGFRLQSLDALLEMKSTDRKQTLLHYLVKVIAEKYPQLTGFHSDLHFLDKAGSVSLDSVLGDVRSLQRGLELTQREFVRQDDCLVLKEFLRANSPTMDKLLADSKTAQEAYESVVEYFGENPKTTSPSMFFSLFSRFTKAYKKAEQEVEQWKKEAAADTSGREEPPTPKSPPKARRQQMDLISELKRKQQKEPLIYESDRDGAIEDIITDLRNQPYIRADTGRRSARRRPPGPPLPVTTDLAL

[2] = target: T2, FRLα C terminus (residues 612–1,094), untagged (UniProt Q9JL26-1 612-1094); assay: pull-down
T2 sequence: T1 sequence

B1: GST-tagged FRLα N terminus (residues 1–450) (domain or fragment)
chain: MGNAAGSAEQPAGPTASPPKQPAVPKQPMPAAGELEERFTRVLNCMNLPPDKVQLLSQYDNEKKWELICDQERFQVKNPPAAYIQKLKSYLDTGGVSRKVASDWMSNLGFKRRVQESTQVLRELETSLRTNHIGWVQEFLNEENRGLDVLLEYLAFAQCSVAYDMESTDSVASGAEKSKPLDQSVEDLSKAPPSSVPKSRLTIKLTPAHSRKALRNSRIVSQKDDVHVCIMCLRAIMNYQSGFSLVMNHPACVNEIALSLNNKSPRTKALVLELLAAVCLVRGGHDIILAAFDNFKEVCGEQHRFEKLMEYFRHEDSNIDFMVACMQFINIVVHSVENMNFRVFLQYEFTHLGLDLYLERLRLTESDKLQVQIQAYLDNVFDVGTLLEETETKNAVLEHMEELQEQVATLTERLRDTENDSMAKIAELEKQLSQARKELETLRERFSEST
- binding result [1]: binds
- binding result [2]: binds

B2: GST–N terminus T126D of FRLα (residues 1–450) (domain or fragment)
chain: B1 chain with T126D
- binding result [2]: binds
